Substitutions are numbered along the chain they refer to. Like-named read-outs stand apart in the source and are kept apart here. Each block holds one binder with its values, some of them ahead of it.
What was measured:
[1] = target: T1, human VISTA extracellular domain (human, UniProt Q9H7M9 33-194); experiment: SPR ProteOn
T1 construct: also called human VISTA ECD; SB0361 (human)

[2] = target: T2, cynomolgus VISTA extracellular domain (cynomolgus, UniProt A0A7N9IB00 33-194); experiment: SPR ProteOn
T2 construct: extracellular domain; also called cyno VISTA ECD; SB0361 (cyno (cynomolgus))
T2 sequence: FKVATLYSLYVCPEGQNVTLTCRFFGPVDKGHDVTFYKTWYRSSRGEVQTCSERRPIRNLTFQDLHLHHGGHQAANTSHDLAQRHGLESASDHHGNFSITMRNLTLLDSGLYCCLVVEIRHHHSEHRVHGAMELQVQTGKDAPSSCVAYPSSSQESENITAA

[3] = target: T3, human VISTA expressed on cells (human, UniProt Q9H7M9 33-295); experiment: cell-based or functional assay
T3 sequence: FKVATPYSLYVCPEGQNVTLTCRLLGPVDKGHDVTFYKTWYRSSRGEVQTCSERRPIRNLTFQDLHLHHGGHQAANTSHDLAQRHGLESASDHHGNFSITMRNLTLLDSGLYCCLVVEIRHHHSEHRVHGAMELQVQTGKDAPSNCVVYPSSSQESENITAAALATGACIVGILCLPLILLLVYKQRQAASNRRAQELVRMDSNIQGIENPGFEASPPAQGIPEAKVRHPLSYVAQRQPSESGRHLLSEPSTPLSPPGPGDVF

[4] = target: T3, human VISTA expressed on cells; experiment: cell-based or functional assay; remark: listed apart in the source
[5] = target: T3, human VISTA expressed on cells; experiment: cell-based or functional assay; remark: listed apart in the source
[6] = target: T2, cynomolgus VISTA extracellular domain; experiment: SPR ProteOn; remark: listed apart in the source

Kd [1]: 0.632 nM
koff [1]: 0.000305 s⁻¹
kon [1]: 482000 M⁻¹ s⁻¹
Kd [2]: 0.31 nM
koff [2]: 0.000219 s⁻¹
kon [2]: 708000 M⁻¹ s⁻¹
IC50, CPM in the MLR [3]: -0.12 log10 of antibody concentration
IC50, IFN-gamma in the MLR [3]: 0.06 log10 of antibody concentration
IC50, CPM in the SEB assay [4]: -0.74 log10 of antibody concentration
IC50, IFN-gamma in the SEB assay [4]: 1.69 log10 of antibody concentration
EC50 IFN-gamma production, MLR [5]: 1.14 µg/mL
EC50 proliferation, MLR [5]: 0.77 µg/mL
B1: VSTB50 (antibody, human IgG1, kappa, V domains shown)
VH: QVQLVQSGSELKKPGASVKVSCKASGYTFTNYGLNWVRQAPGQGLEWMGWINPYTGEPTYADDFKGRFVFSLDTSVSTAYLQICSLKAEDTAVYYCAREGYGNYIFPYWGQGTLVTVSS
VL: DIVMTQTPLSLSVTPGQPASISCRASESVDTYANSLMHWYLQKPGQPPQLLIYRASNLESGVPDRFSGSGSGTDFTLKISRVEAEDVGVYYCQQTNEDPRTFGQGTKLEIKR
notes: also called S41; INX Code 41

Kd [1]: 0.356 nM
koff [1]: 0.000183 s⁻¹
kon [1]: 514000 M⁻¹ s⁻¹
Kd [2]: 0.252 nM
koff [2]: 0.000143 s⁻¹
kon [2]: 569000 M⁻¹ s⁻¹
IC50, CPM in the MLR [3]: 0.02 log10 of antibody concentration
IC50, IFN-gamma in the MLR [3]: 0.4 log10 of antibody concentration
EC50 IFN-gamma production, MLR [5]: 2.48 µg/mL
EC50 proliferation, MLR [5]: 1.04 µg/mL
B2: VSTB60 (antibody, human IgG1, kappa, V domains shown)
VH: B1 VH with L34M, N35T, P53T, P58S, E99D, G100Y, N103I, I105V, F106S, P107A
VL: B1 VL with T31N, L36F, P47S, T95S, N96H, R100Y
notes: also called S47; INX Code 47

Kd [2]: 0.0866 nM
B3: VSTB112 (antibody, human IgG1, kappa)
heavy: not shown
light: DIQMTQSPSSLSASVGDRVTITCRASQSIDTRLNWYQQKPGKAPKLLIYSASSLQSGVPSRFSGSGSGTDFTLTISSLQPEDFATYYCQQSAYNPITFGQGTKVEIKRTVAAPSVFIFPPSDEQLKSGTASVVCLLNNFYPREAKVQWKVDNALQSGNSQESVTEQDSKDSTYSLSSTLTLSKADYEKHKVYACEVTHQGLSSPVTKSFNRGEC
notes: also called S2; INX Code 2

Kd [1]: 0.213 nM
koff [1]: 0.000267 s⁻¹
kon [1]: 1.25e+06 M⁻¹ s⁻¹
Kd [2]: 0.137 nM
koff [2]: 0.000117 s⁻¹
kon [2]: 851000 M⁻¹ s⁻¹
IC50, CPM in the MLR [3]: -0.78 log10 of antibody concentration
IC50, IFN-gamma in the MLR [3]: -0.16 log10 of antibody concentration
IC50, CPM in the SEB assay [4]: -1.44 log10 of antibody concentration
IC50, IFN-gamma in the SEB assay [4]: -0.35 log10 of antibody concentration
EC50 IFN-gamma production, MLR [5]: 0.69 µg/mL
EC50 proliferation, MLR [5]: 0.17 µg/mL
B4: VSTB116 (antibody, human IgG1, kappa)
heavy: not shown
light: B3 light with D30N, R32N, S50A, S91A, A92R, Y93D, N94T
notes: also called S5; INX Code 5

Kd [6]: 0.0866 nM
B5: VSTB174 (antibody, human IgG1, kappa)
heavy: not shown
light: B3 light

Kd [1]: 0.126 nM
koff [1]: 6.99e-05 s⁻¹
kon [1]: 554000 M⁻¹ s⁻¹
Kd [2]: 0.192 nM
koff [2]: 8.53e-05 s⁻¹
kon [2]: 443000 M⁻¹ s⁻¹
IC50, CPM in the MLR [3]: -0.54 log10 of antibody concentration
IC50, IFN-gamma in the MLR [3]: 0.22 log10 of antibody concentration
IC50, CPM in the SEB assay [4]: -1.12 log10 of antibody concentration
IC50, IFN-gamma in the SEB assay [4]: 0.05 log10 of antibody concentration
EC50 IFN-gamma production, MLR [5]: 1.67 µg/mL
EC50 proliferation, MLR [5]: 0.29 µg/mL
B6: VSTB95 (antibody, human IgG1, kappa, V domains shown)
VH: EVQLVESGGGLVQPGGSLRLSCAASGFTFRNYGMSWVRQAPGKGLEWVASIISGGSYTYYPDSVKGRFTISRDNAKNSLYLQMNSLRAEDTAVYYCARIYDHDGDYYAMDYWGQGTTVTVSS
VL: DIVMTQSPLSLPVTPGEPASISCRSSQSIVHSNGNTYLEWYLQKPGQSPQLLIYKVSNRFSGVPDRFSGSGSGTDFTLKISRVEAEDVGVYYCFQGSHVPWTFGQGTKLEIKR
notes: also called S16; INX Code 16

Kd [1]: 0.0264 nM
koff [1]: 3.3e-05 s⁻¹
kon [1]: 1.25e+06 M⁻¹ s⁻¹
Kd [2]: 0.0528 nM
koff [2]: 6.22e-05 s⁻¹
kon [2]: 1.18e+06 M⁻¹ s⁻¹
IC50, CPM in the MLR [3]: -0.33 log10 of antibody concentration
IC50, IFN-gamma in the MLR [3]: 0.27 log10 of antibody concentration
IC50, CPM in the SEB assay [4]: -1.06 log10 of antibody concentration
IC50, IFN-gamma in the SEB assay [4]: -1.05 log10 of antibody concentration
EC50 IFN-gamma production, MLR [5]: 1.88 µg/mL
EC50 proliferation, MLR [5]: 0.47 µg/mL
B7: VSTB53 (antibody, human IgG1, kappa, V domains shown)
VH: QVQLVQSGAEVKKPGASVKVSCKASGYTFTHYTIHWVRQAPGQGLEWMGYIIPSSGYSEYNQKFKDRVTMTRDTSTSTVYMELSSLRSEDTAVYYCARGAYDDYYDYYAMDYWGQGTLVTVSS
VL: B6 VL with S28T, G96A
notes: also called S43; INX Code 43
